Where a chain is given by its changes, count along the chain named. Each block holds one binder with its values, some of them ahead of it.
Assays:
[1] = biological target: T1, Aβ-derived diffusible ligands (ADDLs), soluble oligomers of synthetic Aβ1-42 (UniProt P05067 672-713); assay: ELISA; IgG2
T1 construct: domain: Aβ1-42; number of copies is not fixed; also called synthetic ADDLs; Aβ oligomers

Aβ1-42 monomer = biological target: T2, Aβ1-42 monomer (UniProt P05067 672-713); assay: ELISA; IgG2
T2 construct: domain: Aβ1-42

[2] = biological target: T1, Aβ-derived diffusible ligands (ADDLs), …; assay: competitive ELISA
Method: The plates were incubated for one and half hours at room temperature. Both detection of residual antibody binding and the EC₅₀ calculations were determined as in the one-sided ELISA assay.

[3] = biological target: T1, Aβ-derived diffusible ligands (ADDLs), …; assay: BIACORE (SPR)
Aβ1-40 monomer [4] = biological target: T3, Aβ1-40 monomer (UniProt P05067 672-711); assay: BIACORE (SPR)
T3 construct: domain: Aβ1-40; also called Aβ40; monomer Aβ (Aβ1-40)

[5] = biological target: T1, Aβ-derived diffusible ligands (ADDLs), …; assay: one-sided ELISA (FIG. 7A)
Method: (§1) EC₅₀ represents the half-maximal total Aβ oligomer binding. […] Next day, plates were washed five times with PBS+0.05% TWEEN 20 and blocked overnight with casein blocking buffer (Thermo Scientific, Waltham, Mass.) and 0.05% TWEEN 20. […] After two hours at room temperature incubation, the plates were washed and alkaline phosphatase-conjugated anti-human IgG (ThermoScientific, Waltham, Mass.) was added at 0.08 μg/ml. After incubation for 45 minutes at room temperature, the plates were washed and TROPIX CDP star (Applied Biosystems, Foster City, Calif.) was added. Luminescence was detected after […] on an ENVISION plate reader (PerkinElmer, Waltham, Mass.). Curve fits were completed using GraphPad Prism (GraphPad Software, Inc., San Diego, Calif.) software.

[6] = biological target: T1, Aβ-derived diffusible ligands (ADDLs), …; assay: KINEXA, equilibrium constant in solution
Aβ1-40 monomer [7] = biological target: T3, Aβ1-40 monomer; assay: KINEXA, equilibrium constant in solution
[8] = biological target: T1, Aβ-derived diffusible ligands (ADDLs), …; assay: KINEXA; constant for Aβ1-40 over constant for ADDLs
Aβ1-40 monomer [9] = biological target: T3, Aβ1-40 monomer; assay: one-sided ELISA, Aβ1-40 coated at 100 pmol/well (FIG. 7A)
Method: as §1

[10] = biological target: T1, Aβ-derived diffusible ligands (ADDLs), …; assay: one-sided ELISA, Aβ oligomers coated at 50 pmol/well (FIG. 7A)
Method: as §1

[11] = biological target: T1, Aβ-derived diffusible ligands (ADDLs), …; assay: BIACORE (SPR); affinity for Aβ1-40 over affinity for ADDLs
[12] = biological target: T4, biotinylated ADDLs (bADDLs) (UniProt P05067 672-713, N-terminal biotin); assay: ELISA on coated antigen, chemiluminescence; antibody at 0 timepoint
T4 construct: domain: Aβ1-42; Oligomer mixture; copies not fixed
Method: (§2) High protein binding plates (Costar, Corning, Lowell, Mass.), were coated with target ligand in PBS overnight at 4° C. […] One the next day, plates were washed five times with PBS+0.05% TWEEN 20 (Sigma Aldrich, St. Louis, Mo.) and blocked overnight with casein blocking buffer (Thermo Scientific, Waltham, Mass.) and 0.05% TWEEN 20. […] After 2 hours at room temperature incubation, the plates were washed and alkaline phosphatase-conjugated anti-human IgG (ThermoScientific, Waltham, Mass.) was added at 0.08 μg/ml. After 45 minutes at room temperature incubation, the plates were washed and TROPIX CDP-Star chemiluminescent substrate (LIFE TECHNOLOGIES, Carlsbad, Calif.) was added. Luminescence was detected after 30 minutes on an ENVISION microplate reader (PerkinElmer, Waltham, Mass.). Curve fits were completed using […] PRISM software (GraphPad Software, Inc., San Diego, Calif.).

Aβ1-40 monomer [13] = biological target: T3, Aβ1-40 monomer; assay: as above
Method: as §2

[14] = biological target: T4, biotinylated ADDLs (bADDLs); assay: ELISA on coated antigen, chemiluminescence; antibody stored at 4°, 1 month
Method: as §2

Aβ1-40 monomer [15] = biological target: T3, Aβ1-40 monomer; assay: as above
Method: as §2

[16] = biological target: T4, biotinylated ADDLs (bADDLs); assay: ELISA on coated antigen, chemiluminescence; antibody stored at 25°, 1 month
Method: as §2

Aβ1-40 monomer [17] = biological target: T3, Aβ1-40 monomer; assay: as above
Method: as §2

[18] = biological target: T4, biotinylated ADDLs (bADDLs); assay: ELISA on coated antigen, chemiluminescence; antibody stored at 40°, 1 month
Method: as §2

Aβ1-40 monomer [19] = biological target: T3, Aβ1-40 monomer; assay: as above
Method: as §2

[20] = biological target: T4, biotinylated ADDLs (bADDLs); assay: cell-based assay: antibody pre-incubated with 500 nM bADDLs, block of bADDL binding to primary neurons
Method: (§3) As a control, the same concentration of heat-denatured antibody (98° C. for […]) was mixed with bADDLs. The antibody-bADDL mixtures were incubated in siliconized microcentrifuge tubes (Fischer Scientific, Pittsburgh, Pa.) at 37° C. for one hour with constant end-to-end rotation at a low speed. The mixtures were then applied to primary hippocampal and/or cortical cultures and incubated at 37° C. for one hour. The incubation was terminated by removing the culture medium. Cells were subjected to fixation and post-fixation treatments. Cells were then incubated with streptavidin conjugated with alkaline phosphate (AP) at 4° C. overnight, washed five times with PBS and reacted with the TROPIX CDP-Star chemiluminescent substrate (Life Technologies, Carlsbad, Calif.) at room temperature for 30 minutes. The bADDL binding intensity was measured and recorded with an ENVISION microplate reader (PerkinElmer, Waltham, Mass.).

[21] = biological target: T4, biotinylated ADDLs (bADDLs); assay: cell-based assay: antibody pre-incubated with 500 nM bADDLs in the presence of excess Aβ monomer, block of bADDL binding to primary neurons
Method: as §3

[22] = biological target: T1, Aβ-derived diffusible ligands (ADDLs), …; assay: three-pronged sandwich ELISA (Aβ forms captured by polyclonal M90/1), single antibody concentration; signal on ADDLs over signal on monomer Aβ
Method: (§4) ELISA. […] Monoclonal antibodies diluted in BSA/TBS were incubated for 90 minutes at room temperature and detected with a VECTASTAIN® ABC kit to mouse IgG. The HRP label was visualized with BIO-RAD peroxidase substrate and read at 405 nm on a Dynex MRX-TC microplate reader.

[23] = biological target: T1, Aβ-derived diffusible ligands (ADDLs), …; assay: three-pronged sandwich ELISA (Aβ forms captured by polyclonal M90/1), single antibody concentration; signal on ADDLs over signal on fibrillar Aβ
Method: as §4

B2: antibody 19.3 N33T (antibody, IgG2, V domains shown)
VH: EVQLVESGGGLVQPGGSLRLSCAASGFTFSSFGMHWVRQAPGKGLEWVAYISRGSSTIYYADTVKGRFTISRDNAKNSLYLQMNSLRAEDTAVYYCARGITTALDYWGQGTLVTVSS
VL: DVVMTQSPLSLPVTPGEPASISCRSSQSIVHSTGNTYLEWYLQKPGQSPQLLIYKASNRFSGVPDRFSGSGSGTDFTLKISRVEAEDVGVYYCFQGSRLGPSFGQGTKLEIL
notes: also called 19.3T33
EC50 [1]: 3.1 nM
EC50 (Aβ1-42 monomer): 244 nM
EC50 [12]: 15.5 nM
EC50 (Aβ1-40 monomer [13]): 332 nM
EC50 [14]: 11.6 nM
EC50 (Aβ1-40 monomer [15]): 307 nM
EC50 [16]: 15.7 nM
EC50 [18]: 23.5 nM
EC50 (Aβ1-40 monomer [19]): 96.3 nM

B3: humanized anti-ADDL antibody h3B3 (antibody, V domains shown)
VH: B2 VH
VL: B2 VL with T33N, R98H, L99V, G100P, S102T, L112K
notes: Parental humanized antibody; also called humanized 3B3; h3B3 (parental)
Kd (Aβ1-40 monomer [4]): 105 nM
Kd (Aβ1-40 monomer [7]): 45 nM

B4: antibody 19.3 N33S (antibody, IgG2, V domains shown)
VH: B2 VH
VL: B2 VL with T33S
notes: also called 19.3S33
EC50 [1]: 1.7 nM
EC50 (Aβ1-42 monomer): 150 nM
EC50 [12]: 7.8 nM
EC50 (Aβ1-40 monomer [13]): 55.1 nM
EC50 [14]: 8.6 nM
EC50 (Aβ1-40 monomer [15]): 59.1 nM
EC50 [16]: 12.8 nM
EC50 (Aβ1-40 monomer [17]): 24.3 nM
EC50 [18]: 10.1 nM
EC50 (Aβ1-40 monomer [19]): 29.9 nM

Further binders by falling EC50 [1], results first:

EC50 [1]: 0.82 nM
EC50 (Aβ1-42 monomer): 28 nM
B5: antibody 19.3 N33D (antibody, V domains shown)
VH: B2 VH
VL: B2 VL with T33D
notes: Made as a control

EC50 [1]: 0.8 nM
EC50 (Aβ1-42 monomer): 18 nM
fold higher concentration of Aβ1-40 than of Aβ oligomers needed to displace 50% of 19.3 [2]: ~600 fold
Kd [3]: 4.8 nM
Kd (Aβ1-40 monomer [4]): 150 nM
fold greater potency for Aβ oligomers than for Aβ40 monomer [5]: ~3.7 fold
Kd [6]: 2.7 nM
Kd (Aβ1-40 monomer [7]): 16.7 nM
Ratio (Aβ monomer/ADDL) [8]: 6.2
EC50 (Aβ1-40 monomer [9]): ~4.3 nM
EC50 [10]: ~1.7 nM
Ratio (Aβ monomer/ADDL) [11]: 31
EC50 [12]: 1.1 nM
EC50 (Aβ1-40 monomer [13]): 10.1 nM
EC50 [14]: 1.7 nM
EC50 (Aβ1-40 monomer [15]): 16.3 nM
EC50 [16]: 2.1 nM
EC50 (Aβ1-40 monomer [17]): 22.1 nM
EC50 [18]: 5.9 nM
EC50 (Aβ1-40 monomer [19]): 88.8 nM
IC50 [20]: 15.4 nM
IC50 [21]: 15.3 nM
ADDL:Monomer binding ratio [22]: 2.5
ADDL:Fibrillar binding ratio [23]: 2
B1: anti-ADDL antibody 19.3 (antibody, V domains shown)
VH: B2 VH
VL: DVVMTQSPLSLPVTPGEPASISCRSSQSIVHSNGNTYLEWYLQKPGQSPQLLIYKASNRFSGVPDRFSGSGSGTDFTLKISRVEAEDVGVYYCFQGSRLGPSFGQGTKLEIKR
notes: copies: 2 + 2

From US20150320860A1 (published 2015)
